Results taken from US20220235132A1 (ANAPTYSBIO, published 2022).
Several values for one entry are separate records, joined by “and”; a condition that tells them apart may be missing. Identical values can stand only once.

What was measured:
[1] = biological target: T1, human PD-1 expressed on cells (human, UniProt Q15116 25-288); assay: cell-based or functional assay
[2] = biological target: T2, cynomolgus PD-1 (as used in KinExA) (cynomolgus monkey); assay: KinExA (kinetic exclusion assay)
T2 construct: also called Cynomolgus PD-1 KD (KinExA)

[3] = biological target: T1, human PD-1 expressed on cells; assay: flow cytometry, 2-day anti-CD3/anti-CD28 activated human CD4+ T cells
Protocol: Primary human peripheral blood CD4⁺ T cells were prepared using magnetic bead separation (CD4⁺ T Cell Isolation Kit, Miltenyi Biotec, Auburn, Calif.) of peripheral blood mononuclear cells (PBMCs) and activated for 48 hours with plastic-coated anti-CD3 and anti-CD28 in 6-well plates. Cells (1×10⁵ per sample) were washed and stained in V-bottom 96-well plates with the indicated concentrations of each antibody for 30 min at 4° C. with gentle shaking, centrifuged and washed once. Cells were fixed in 4% paraformaldehyde in PBS for 10 min at room temperature, washed, and antibodies detected with Alexa Fluor 647-conjugated F(ab′)2 goat anti-human IgG Fc (Jackson ImmunoResearch, West Grove, Pa.) for 10 min at 4° C. Cells were washed, resuspended, and bound antibody fluorescence quantified on a BD FACSArray™ (BD Biosciences, San Jose, Calif.). Data were analyzed for geometric mean fluorescence intensity (MFI) using FlowJo® analysis software (FlowJo, LLC). ECso values were determined in GraphPad Prism 7.02 (GraphPad Software) using a log(agonist) vs. response—Variable slope (4 parameters) curve fit.

[4] = biological target: T3, biotinylated human PD-1 extracellular domain monomer (human, UniProt Q15116 25-170, biotinylated (site not stated)); assay: SPR (Biacore T200), biotinylated PD-1 ECD monomer captured on SA chip
T3 construct: extracellular domain; Captured on a streptavidin sensor chip for SPR; also called Human PD-1 (SPR)

[5] = biological target: T4, biotinylated cynomolgus monkey PD-1 extracellular domain monomer (cynomolgus monkey, UniProt B0LAJ3 25-170, Biotinylated; neither the site nor the method is stated, and the letters do not carry it.); assay: as above
T4 construct: Captured on a streptavidin sensor chip for SPR; also called Cynomolgus PD-1 (SPR)

[6] = biological target: T5, cynomolgus monkey PD-1 expressed on cells (cynomolgus monkey, UniProt B0LAJ3 25-288); assay: flow cytometry, HEK 293 cells stably expressing cynomolgus monkey PD-1
T5 construct: also called cynomolgus PD-1; PD-1 on stably transfected HEK 293 cells
Protocol: HEK 293 cells were stably transfected to express either human PD-1 or cynomolgus monkey PD-1. Cells were harvested by Accutase™ treatment (Innovative Cell Technologies, San Diego, Calif.), the cells expressing cynomolgus monkey PD-1 were treated with the lipophilic fluorescent dye Vybrant® DiD (ThermoFisher Scientific, Carlsbad, Calif.), and then mixed with an equal number of unlabeled HEK 293 cells expressing human PD-1. Cells (2×10⁵ total per sample) were stained with the indicated concentrations of each antibody for 40 min at 4° C. with gentle shaking, centrifuged and washed once. Cells were fixed in 2% paraformaldehyde in phosphate-buffered saline (PBS) for 10 min at room temperature, washed, and antibodies detected with Phycoerythrin (PE)-conjugated goat anti-human kappa (Southern Biotechnology, Birmingham, Ala.) for 15 min at 4° C. with gentle shaking. Cells were washed, resuspended, and bound antibody fluorescence quantified on a BD FACSArray™ (BD Biosciences, San Jose, Calif.). Data were analyzed for median fluorescence intensity (MFI) using FlowJo® analysis software (FlowJo, LLC). ECso values were determined in GraphPad Prism 5.0 (GraphPad Software) using a log(agonist) vs. response—Variable slope (4 parameters) curve fit. The results are shown in FIGS. 1 and 2, and the ECso values are set forth in Table 2 (human) and Table 3 (cynomolgus monkey). […]

[7] = biological target: T4, biotinylated cynomolgus monkey PD-1 …; assay: SPR screening (method taken from paragraph 169), N = 2
Protocol: KD measurements for screening by Surface Plasmon Resonance (SPR) were performed on a Biacore T200 (GE Healthcare Life Sciences, Pittsburgh, Pa.), and kinetic constants were fit globally using a 1:1 binding model. Biotinylated human or cynomolgus monkey PD-1 extracellular domain monomer was captured at a 1 nM concentration on a Biacore Sensor chip SA (GE Healthcare Life Sciences, Pittsburgh, Pa.), with a carboxymethylated dextran surface pre-immobilized with streptavidin. The captured antigen level was targeted to yield a low response to prevent avidity effects on the dissociation rate. Tm measurements were determined by fluorescence-based thermal shift and differential scanning calorimetry.

T5 sequence (B0LAJ3 entry or part of it limits assumed): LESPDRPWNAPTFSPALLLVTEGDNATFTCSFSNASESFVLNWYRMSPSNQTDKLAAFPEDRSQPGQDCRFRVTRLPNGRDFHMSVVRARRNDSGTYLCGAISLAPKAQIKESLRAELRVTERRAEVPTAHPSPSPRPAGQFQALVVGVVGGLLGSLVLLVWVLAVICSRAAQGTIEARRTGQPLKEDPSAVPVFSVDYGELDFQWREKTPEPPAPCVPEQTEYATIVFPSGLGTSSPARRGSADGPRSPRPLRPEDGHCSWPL
T1 sequence (Q15116 25-288): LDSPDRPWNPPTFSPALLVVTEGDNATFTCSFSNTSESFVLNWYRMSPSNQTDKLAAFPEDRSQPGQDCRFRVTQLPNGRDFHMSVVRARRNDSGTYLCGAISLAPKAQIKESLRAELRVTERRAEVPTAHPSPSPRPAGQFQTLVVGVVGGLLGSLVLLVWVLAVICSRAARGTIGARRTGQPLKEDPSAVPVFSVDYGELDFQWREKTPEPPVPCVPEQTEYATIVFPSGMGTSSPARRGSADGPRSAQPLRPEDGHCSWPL
T4 sequence (B0LAJ3 entry or part of it limits assumed): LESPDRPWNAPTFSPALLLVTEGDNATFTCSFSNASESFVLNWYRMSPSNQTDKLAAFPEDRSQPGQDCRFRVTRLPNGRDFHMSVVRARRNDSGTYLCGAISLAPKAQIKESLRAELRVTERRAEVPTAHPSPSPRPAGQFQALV
T3 sequence (Q15116 25-170): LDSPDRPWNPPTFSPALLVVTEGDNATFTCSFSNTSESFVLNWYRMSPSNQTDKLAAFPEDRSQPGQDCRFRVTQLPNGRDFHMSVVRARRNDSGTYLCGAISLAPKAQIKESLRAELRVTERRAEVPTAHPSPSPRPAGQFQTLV

Row | Kd [2] [nM] | Kd [5] [nM] | EC50 [6] | Kd [7] [nM] | Binder | also measured
1 | 0.21 | 0.09 | 3.69 nM and 2.69 nM and 2.59 nM |  | APE12043 (437M5-112 anti-PD-1 antibody, ExpiCHO-S transient) (antibody, V domains shown, detected with anti-human kappa; Only variable regions are tied to APE12043; the suffixes .02 to .05 are lots; also called APE12043.02; APE12043.03) VH: QVQLVQSGAEVKKPGASVKVSCKASGYTFTSYSMHWVRQAPGQGLEWMGYINPSSGFTNYIQKFRDRVTMTADKSSSTAYMELSRLRSDDTAVYYCARDYYGRYYYVMDYWGQGTTVTVSS VL: DIQMTQSPSSLSASVGDRVTITCTASSSVSSSFLHWYQQKPGKAPKLLIYSTSDLASGVPSRFSGSGSGTDFTLTISSLQPEDFATYYCHQYHRSPLTFGGGTKVEIKR | EC50 [3]: 2.99 nM and 3.06 nM; Kd [4]: 0.031 nM
2 |  | 0.217 |  |  | APE12538 (437M5-112 anti-PD-1 antibody, CHO-S sorted stable pool) (antibody, human IgG1, kappa, V domains shown, also called APE12538.01) VH: QVQLVQSGAEVKKPGASVKVSCKASGYTFTSYSMHWVRQAPGQGLEWMGYINPSSGFTNYIQKFRDRVTMTADKSSSTAYMELSRLRSDDTAVYYCARDYYGRYYYVMDYWGQGTTVTVSS VL: DIQMTQSPSSLSASVGDRVTITCTASSSVSSSFLHWYQQKPGKAPKLLIYSTSDLASGVPSRFSGSGSGTDFTLTISSLQPEDFATYYCHQYHRSPLTFGGGTKVEIKR | 
3 |  | 0.445 |  | 0.64 | APE12537 (3.7C6 anti-PD-1 antibody, CHO-S sorted stable pool) (antibody, human IgG1, kappa, V domains shown, also called APE12537.01) VH: QVQLVQSGSELKKPGASVKVSCKASNYTFTDYSMHWVRQAPGQGLEWMGWINIETYYPTYADQFKGRFAFSLDTSVSTAYLQISSLKAEDTAVYYCARDYYGRFYYAMDYWGQGTTVTVSS VL: EIVLTQSPATLSLSPGERATLSCTASSSVSSSYFHWYQQKPGQAPRLLIYSTSNLASGIPARFSGSGSGTDFTLTISRLEPEDFAVYYCHQYHRSPLTFGGGTKVEIKR | 

The next lines start with the binder.

Row | Binder | Kd [2] [nM] | Kd [5] [nM] | EC50 [6] | Kd [7] [nM] | also measured
4 | APE12890 (3.7C6 anti-PD-1 antibody, CHO-S) (antibody, human IgG1, kappa, V domains shown) VH: QVQLVQSGSELKKPGASVKVSCKASNYTFTDYSMHWVRQAPGQGLEWMGWINIETYYPTYADQFKGRFAFSLDTSVSTAYLQISSLKAEDTAVYYCARDYYGRFYYAMDYWGQGTTVTVSS VL: EIVLTQSPATLSLSPGERATLSCTASSSVSSSYFHWYQQKPGQAPRLLIYSTSNLASGIPARFSGSGSGTDFTLTISRLEPEDFAVYYCHQYHRSPLTFGGGTKVEIKR |  |  |  |  | median IC50 for IFN-γ inhibition, human whole blood tetanus toxoid recall assay [1]: 0.053 nM; median IC50 for IL-17A inhibition, human whole blood tetanus toxoid recall assay [1]: 0.097 nM
5 | APE12095 (3.7C6 anti-PD-1 antibody, ExpiCHO-S transient) (antibody, V domains shown, detected with anti-human kappa; Only variable regions are tied to APE12095; suffixes are lots; also called APE12095.03; APE12095.04) VH: QVQLVQSGSELKKPGASVKVSCKASNYTFTDYSMHWVRQAPGQGLEWMGWINIETYYPTYADQFKGRFAFSLDTSVSTAYLQISSLKAEDTAVYYCARDYYGRFYYAMDYWGQGTTVTVSS VL: EIVLTQSPATLSLSPGERATLSCTASSSVSSSYFHWYQQKPGQAPRLLIYSTSNLASGIPARFSGSGSGTDFTLTISRLEPEDFAVYYCHQYHRSPLTFGGGTKVEIKR | 0.45 | 0.244 | 7.99 nM and 6.17 nM and 7.47 nM |  | 
6 | 030-13263/030-13264 (CDR-grafted) (antibody, V domains shown, CDR-grafted forerunner of APE12537; APE12537 differs from it by A52aI and D62Q (Kabat) in the heavy chain) VH: QVQLVQSGSELKKPGASVKVSCKASNYTFTDYSMHWVRQAPGQGLEWMGWINAETYYPTYADDFKGRFAFSLDTSVSTAYLQISSLKAEDTAVYYCARDYYGRFYYAMDYWGQGTTVTVSS VL: EIVLTQSPATLSLSPGERATLSCTASSSVSSSYFHWYQQKPGQAPRLLIYSTSNLASGIPARFSGSGSGTDFTLTISRLEPEDFAVYYCHQYHRSPLTFGGGTKVEIKR |  |  |  | 1.02 | 
